These results are taken from patent US10400022B2, “Neuropilin-1 specific binding peptide, fusion protein fused with same, and use thereof” (AJOU UNIVERSITY INDUSTRY-ACADEMIC COOPERATION FOUNDATION, priority 2015, dated 2019).

For one assay, the system named is FaDu cells. Description: Tumor tissue penetration of co-administered doxorubicin (IHC). The format is in vivo, Balb/c nude mice. Particulars: doxorubicin 10 mg/kg with 2.5 mg/kg PBS, Fc or Fc-TPP11 intravenously, 1 hour. The procedure: In order to examine tumor tissue penetration of a small-molecule drug co-administered with the Fc-TPP11 constructed in the above-described experiment, immunohistochemistry was performed. Specifically, each of Balb/c nude mice was injected subcutaneously with 5×10^6 FaDu cells, and after about 15 days, when the tumor volume reached about 300 to 400 mm^3, 10 mg/kg of the anticancer drug doxorubicin and 2.5 mg/kg of each of PBS, Fc and Fc-TPP11 were injected intravenously into each mouse. At 1 hour after injection, the mouse heart was perfused with PBS and perfused with 4% para-formaldehyde to fix tissue. Next, the tumor tissue was extracted and subjected to immunohistochemistry. The extracted tumor was sectioned to a thickness of 20 μm by a frozen-section method, and the blood vessels were stained with the primary antibody CD31 (BD Pharmingen) and a FITC (green fluorescence)-labeled secondary antibody recognizing the same.
According to the same method as that used for FIG. 18(A), doxorubicin and each of PBS, Fc and Fc-TPP11 were injected intravenously into mice, and the mouse heart was perfused with PBS, and the tumor tissue was extracted. […] Then, the tissue was thawed at 37° C. and centrifuged, and the fluorescence (Excitation 485 nm/emission 528 nm) of the supernatant was measured to quantify the amount of doxorubicin penetrated.

The test system of the next assay is VE-cadherin. Description: Western blot of VE-cadherin in HUVEC. The format is cell-based, human. Particulars: 10 minutes. The procedure:
Specifically, 5×10^5 HUVEC cells were seeded into each well of a 6-well plate and incubated for 24 hours, […] constant Fc region and the selected peptide that binds specifically to NRP1, for 10 minutes, followed by Western blot analysis. After SDS-PAGE, the gel was transferred to a PVDF membrane, and detection was performed using primary antibodies (SantaCruz) that recognize VE-cadherin and β-actin and using HRP-conjugated secondary antibody (SantaCruz), and analysis was performed using ImageQuant LAS4000 mini (GE Healthcare).
In general terms: A western blot detects proteins with antibodies after separation by electrophoresis.

In assay [1] the test system is HUVEC cells. In words: Tube formation assay in HUVEC. It is filed as cell-based, human. To be noted: VEGF165A 20 ng/ml, Fc-TPP11 1 μM, 8 hours. The procedure: VEGF165A is known to […] angiogenesis using NRP1 as a co-receptor. Based on this, as a method capable of observing angiogenesis in vitro, a tube formation assay was performed. In an experimental method, 50 μl of ECMatrix was added to a 96-well plate and polymerized at 37° C. for 2 hours. After 2 hours, HUVEC cells were suspended in EBM2 medium, mixed with VEGF165A (20 ng/ml), Fc or Fc-TPP11 (1 μM), plated on the ECMatrix at a density of 1×10^4 cells per well, and incubated for 8 hours. The incubated cells were imaged with a microscope.

Assay [2] concerns HUVEC cells. In words: Transwell invasion assay of vascular endothelial cells. The format is cell-based, human. To be noted: VEGF165A 20 ng/ml, 1 μM, 12 hours. The method, then:
Additionally, in order to examine the inhibitory activity of Fc-TPP11 against VEGF165A-induced invasion of vascular endothelial cells, a transwell assay was performed. A transwell (Corning Costar, USA) having a polycarbonate membrane with a […] pore size was used. Matrigel (Corning Costar, USA) was coated on the lower layer surface of the filter at a ratio of 1:10 and polymerized for 2 hours under the conditions of 37° C. and 5% CO2, and then 5×10^4 HUVEC cells and each of Fc and Fc-TPP11 (1 μM) were seeded in EBM2 medium in the upper layer well. In addition, EBM2 medium containing VEGF165A (20 ng/ml) was added to the lower layer well. Next, the cells were incubated for 12 hours under the conditions of 37° C. and 5% CO2, and then unmoved cells in the upper layer well were removed with cotton, and the cells were fixed with 4% para-formaldehyde. Then, the cells were stained with crystal violet.

For assay [3], the system named is human umbilical vein endothelial cells (HUVECs). In words: Transwell assay of penetration of vascular endothelial cells (dextran-FITC). It is filed as cell-based. To be noted: 1 μM for 30 minutes (VEGF165A about 1.3 nM); dextran-FITC fluorescence in lower chamber. The method, then: Specifically, 5×10^4 human umbilical vein endothelial cells (HUVECs) were seeded into the upper chamber of a transwell plate (Corning) and incubated in EGM2 for 3 days under the conditions of 37° C. and 5% CO2. […] Then, 50 μl of dextran-FITC (Sigma) was added to the upper chamber. After 30 minutes, based on the principle according to which the fluorescent substance would be observed when penetration into the vascular endothelial cells was increased, the medium was sampled from the lower chamber and the fluorescence thereof was measured.

Assay [4] concerns HUVEC cells. In words: Wound healing assay (migration of vascular endothelial cells). The format is cell-based, human. Particulars: VEGF165A 20 ng/ml, 1 μM, 18 hours. The method, then: In addition to the results obtained in Examples 8(1) and 8(2), in order to examine the inhibitory activity of Fc-TPP11 against VEGF165A-induced migration of vascular endothelial cells, a wound healing assay was performed. In an experimental method, 5×10^5 HUVEC cells were seeded into each well of a 6-well plate, and then incubated in 0.5% serum EBM2 medium containing 1 μg/ml mitomycin c for 1 hour until the cells were saturated (95% or more) in the plate. The dish bottom was linearly rubbed with a yellow tip to make injury lines having a uniform width. Then, the cells were washed with PBS such that the cells were detached from the bottom. After removal of PBS, medium was added slowly to the HUVEC cells. The cells were treated with 0 or 20 ng/ml of VEGF165A, treated with each of Fc and Fc-TPP11 (1 μM), and then incubated under the conditions of 37° C. and 5% CO2. The cells were imaged with a microscope (Primo vert, Carl Zeiss co., Germany) at 0 hour and 18 hours, and the distance between both ends, measured with a computer program (AxioVision LE, Carl Zeiss co., Germany) included in the microscope, was statistically processed.

Take `COc1cccc2c1C(=O)c1c(O)c3c(c(O)c1C2=O)C[C@@](O)(C(=O)CO)C[C@@H]3O[C@H]1C[C@H](N)[C@H](O)[C@H](C)O1` [doxorubicin]: the “tumor tissue penetration of doxorubicin” value in the assay on FaDu cells was “little or no red fluorescence was observed”.

B1: VEGF165A: vascular endothelial cell growth factor-A, NRP1 ligand used as control (protein)
chain: APMAEGGGQNHHEVVKFMDVYQRSYCHPIETLVDIFQEYPDEIEYIFKPSCVPLMRCGGCCNDEGLECVPTEESNITMQIMRIKPHQGQHIGEMSFLQHNKCECRPKKDRARQENPCGPCSERRKHLFVQDPQTCKCSCKNTDSRCKARQLELNERTCRCDKPRR
Take B1: the “change in VE-cadherin” value in the assay with VE-cadherin is on record as “a decrease in VE-cadherin was observed”. For the same molecule, the tube formation result in the assay on HUVEC cells [1] was “tube formation increased”. For the same molecule, the “invasion activity of vascular endothelial cells” value with HUVEC cells [2] was “increased the invasion activity of vascular endothelial cells”. Moreover, the “ability to penetrate vascular endothelial cells” value in assay [3] was “had an increased ability to penetrate vascular endothelial cells”. Also, the “migration activity of vascular endothelial cells” value with HUVEC cells [4] is “increased the migration activity of vascular endothelial cells”.
